What was measured:
[1] = molecular target: T1, human CDH17 as originally expressed in cells (cell surface CDH17 on AsPC1, GP2d and other cancer cell lines) (human, UniProt Q12864 23-832); assay: cell-based or functional assay
[2] = molecular target: T1, human CDH17 as originally expressed in …; assay: flow cytometry titration on CDH17 positive AsPC1 cells
Procedure: (§1) To determine the binding of recombinant antibody to cell surface CDH17 receptors, cells were first harvested and resuspended in cell staining buffer (BioLegend, Cat #420201) at 1.3-1.5×10⁶ cells/mL. Then, the cells were treated with human Fc receptor blocking reagent (BioLegend, Cat #422302) on the ice for 10 min. The resulting cell suspension was aliquoted into 50 μL aliquots. […] The cells were incubated on the ice for 1 hour and then washed with cell staining buffer twice. 50 μL of secondary antibody (PE conjugated goat anti-human Fc, eBioscience™, 1:250 dilution) was added to each sample to resuspend the cells. The cells were incubated on the ice for another 20 min. Cells were subsequently washed twice with cell staining buffer and resuspended in 4% PFA to fix the cells. The samples were analyzed using iQue3 to measure the median fluorescence intensity using corresponding channels.

[3] = molecular target: T1, human CDH17 as originally expressed in …; assay: flow cytometry titration of recombinant human IgG1 on CDH17-positive AsPC1 cells, 0.001-200 nM, PE anti-human Fc, MFI
Procedure: as §1

BSA [4] = molecular target: T2, BSA (UniProt P02769 25-607); assay: ELISA, plate coated with BSA, hybridoma supernatant
T2 construct: Control coating protein of the ELISA
Procedure: (§2) ELISA was performed using the DuoSet ELISA Ancillary Kit (R&D System, DY008). ELISA plates were coated with 1 μg/ml of human CDH17 His Tag (Sino biological, catalog number 11360-H08H), or BSA overnight. Excess unbound proteins were washed off by washing the plates three times with the wash buffer before blocking for 1 hour at room temperature. 100 μl CDH17 hybridoma supernatant was added in each well and incubated for 1 hour at room temperature. Excess unbound antibodies were washed off and 100 μl of 1:30000 diluted secondary antibody Goat anti-mouse IgG Fc-HRP (ab5870) was added to each well for another 1 hour. Plates were washed before the addition 50 μL of […] (color A and color B) according to manufacturer's protocol. The reactions were stopped using 25 μL of stop solution. Optical density at 450 nm of samples was measured by a microplate reader (PerkinElmer).

BSA [5] = molecular target: T2, BSA; assay: ELISA, plate coated with 1 µg/ml BSA, hybridoma supernatant
Procedure: as §2

[6] = molecular target: T3, human CDH17 His Tag (Sino biological, catalog number 11360-H08H) (human, UniProt Q12864 23-787); assay: ELISA, plate coated with 1 µg/ml human CDH17 His Tag, hybridoma supernatant
T3 construct: Bought recombinant protein; also called hCDH17; human CDH17 protein; not shown: His tag
Procedure: as §2

T2 sequence (P02769 25-607 limits assumed): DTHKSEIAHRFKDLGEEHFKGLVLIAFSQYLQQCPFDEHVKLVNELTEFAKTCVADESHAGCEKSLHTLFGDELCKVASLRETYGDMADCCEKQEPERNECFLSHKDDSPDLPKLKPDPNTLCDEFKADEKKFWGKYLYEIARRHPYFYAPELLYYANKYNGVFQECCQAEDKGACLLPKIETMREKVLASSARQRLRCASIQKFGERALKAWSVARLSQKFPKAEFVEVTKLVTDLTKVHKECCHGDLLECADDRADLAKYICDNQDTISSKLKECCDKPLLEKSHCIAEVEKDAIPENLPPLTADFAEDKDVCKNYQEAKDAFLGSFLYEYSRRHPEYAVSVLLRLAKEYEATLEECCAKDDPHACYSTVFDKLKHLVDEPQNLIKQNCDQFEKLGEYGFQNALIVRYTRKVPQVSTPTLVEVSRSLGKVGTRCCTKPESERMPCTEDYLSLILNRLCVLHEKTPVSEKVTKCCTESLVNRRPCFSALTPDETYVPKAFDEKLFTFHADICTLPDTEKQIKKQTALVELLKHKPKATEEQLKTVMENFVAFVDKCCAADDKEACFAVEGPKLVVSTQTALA

B1: 4F9 anti-CDH17 recombinant antibody (human IgG1) (antibody, V domains shown)
VH: QVQLQESGPGLVKPSGTLSLTCAVSGGSISSSNWWSWVRQPPGKGLEWIGEIYHSGSTSYNPSLKSRVTISVDKSKNQFSLKLSSVTAADTAVYYCARNDWGFPLDCWGQGTLVTVSS
VL: DIQMTQSPSSLSASVGDRVTITCRASQSISSYLNWYQQKPGKAPKLLIYAASSLQSGVPSRFSGSGSGTHFTLTISSLQPEDFATYYCQQSHNIPITFGQGTRLEIKR
IC50 of indirect killing assay to evaluate the internalization in AsPC1 cells [1]: 0.29 nM | Kd [2]: 1.69 nM | EC50 (read off the curve) [3]: ~2 nM

B2: 4F9 (hybridoma clone supernatant) (antibody, V domains shown)
VH: B1 VH
VL: DIQMTQSPSSLSASVGDRVTITCRASQSISSYLNWYQQKPGKAPKLLIYAASSLQSGVPSRFSGSGSGTHFTLTISSLQPEDFATYYCQQSHNIPITFGQGTRLEIK
notes: Hybridoma supernatant
OD450 (BSA [4]): 0.051 OD450 | binding result (BSA [5]): no binding | OD450 [6]: 1.52 OD450

B3: 15A4 anti-CDH17 recombinant antibody (human IgG1) (antibody, V domains shown)
VH: QVQLVESGGGVVQPGRSLRLSCAASGFNFSSYGMHWVRQAPGKGLEWVAFVWYDGSNQNYADSVKGRFTISRDNSNNTLYLQMNSLRAEDTAVYYCARDRYSSGWDVFDYWGQGTLVTVSS
VL: DIQMTQSPSSVSASVGDRVTITCRASQGISSWLAWYQQKPGKAPKLLIFAASSLQSGVPSRFSGSGSGTGFTLTISSLQPEDFATYYCQQAKSFPPTFGQGTKVEIKR
IC50 of indirect killing assay to evaluate the internalization in AsPC1 cells [1]: 1.99 nM | Kd [2]: 2.32 nM | EC50 (read off the curve) [3]: ~3 nM

— patent publication US20260232828A1, “LIGAND-CYTOTOXICITY DRUG CONJUGATES AND PHARMACEUTICAL USES THEREOF” (HANSOH BIO LLC, priority 2023, published 2026)
